Assay [1] deals with T1, autoimmune regulator (AIRE), mouse, endogenous in B cells (mouse, UniProt Q9Z0E3 1-552, limits assumed).
T1 construct: Endogenous protein in mouse splenic B cells and CH12 cells
T1 sequence: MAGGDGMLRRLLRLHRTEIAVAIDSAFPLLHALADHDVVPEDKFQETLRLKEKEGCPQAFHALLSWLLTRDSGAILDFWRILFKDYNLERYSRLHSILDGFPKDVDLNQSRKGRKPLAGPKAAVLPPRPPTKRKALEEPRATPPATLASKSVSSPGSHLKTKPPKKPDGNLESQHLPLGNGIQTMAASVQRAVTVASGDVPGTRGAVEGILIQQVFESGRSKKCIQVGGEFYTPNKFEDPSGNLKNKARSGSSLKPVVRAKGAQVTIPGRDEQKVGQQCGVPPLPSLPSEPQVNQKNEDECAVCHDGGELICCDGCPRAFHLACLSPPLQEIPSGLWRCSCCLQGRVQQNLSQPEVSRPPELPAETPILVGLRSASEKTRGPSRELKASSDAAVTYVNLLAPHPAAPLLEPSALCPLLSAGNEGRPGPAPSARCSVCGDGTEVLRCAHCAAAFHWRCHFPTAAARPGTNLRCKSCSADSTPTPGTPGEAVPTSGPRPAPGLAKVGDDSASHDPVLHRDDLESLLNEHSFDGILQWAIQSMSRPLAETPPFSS
Briefly: co-IP, mouse splenic B cell lysates.

In assay [2] the target is T2, Bcl10, endogenous in the human Ramos B cell line (human, UniProt O95999 1-233).
T2 sequence (looked up): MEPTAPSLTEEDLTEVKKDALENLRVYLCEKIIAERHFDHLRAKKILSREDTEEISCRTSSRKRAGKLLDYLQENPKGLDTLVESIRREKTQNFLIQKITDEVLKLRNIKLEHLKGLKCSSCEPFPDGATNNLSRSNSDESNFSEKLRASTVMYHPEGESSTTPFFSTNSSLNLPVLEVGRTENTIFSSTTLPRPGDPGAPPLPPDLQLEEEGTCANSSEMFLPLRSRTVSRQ
Briefly: co-IP in Ramos B cells unstimulated or stimulated with TNF for 24 h.

B1: activation-induced cytidine deaminase (AID), mouse, endogenous in B cells (enzyme, UniProt Q9WVE0 1-198, looked up)
chain: MDSLLMKQKKFLYHFKNVRWAKGRHETYLCYVVKRRDSATSCSLDFGHLRNKSGCHVELLFLRYISDWDLDPGRCYRVTWFTSWSPCYDCARHVAEFLRWNPNLSLRIFTARLYFCEDRKAEPEGLRRLHRAGVQIGIMTFKDYFYCWNTFVENRERTFKAWEGLHENSVRLTRQLRRILLPLYEVDDLRDAFRMLGF
notes: Endogenous protein in mouse splenic B cells and CH12 cells
Take B1: in assay [1], the binding result is reported as “binds”.

B2: activation-induced cytidine deaminase (AID), human, endogenous in B cells (enzyme)
chain: MDSLLMNRRKFLYQFKNVRWAKGRRETYLCYVVKRRDSATSFSLDFGYLRNKNGCHVELLFLRYISDWDLDPGRCYRVTWFTSWSPCYDCARHVADFLRGNPNLSLRIFTARLYFCEDRKAEPEGLRRLHRAGVQIAIMTFKDYFYCWNTFVENHERTFKAWEGLHENSVRLPRQLRRILLPLYEVDDLRDAFRTWGR
notes: Endogenous protein in lysates of human tonsillar B cells and Ramos B cells
Turning to B2, the binding result in assay [2] is recorded as “no binding”.

These data come from patent publication US20190062705A1 (WAYNE STATE UNIVERSITY, published 2019).
